Starred links: 1 amine or outer side, 2 acyl side, 3 side chain; linkers in the order of their positions; H or OH if unused. Non-standard residues stand in square brackets, D forms with d. Groups on a side chain read outwards from the residue. Primed or numbered codes have the meaning given here. No end group written: not given here. *: point of attachment. C20 diacid = O=C(O)CCCCCCCCCCCCCCCCCCC(=O)*; C18 diacid = O=C(O)CCCCCCCCCCCCCCCCC(=O)*; γGlu = O=C(O)[C@H](CCC(=O)[*:2])N[*:1]; αMeF = C[C@](N)(Cc1ccccc1)C(=O)O; PEG4′ = polyethylene glycol; AEEA = NCCOCCOCC(=O)O; Aib = CC(C)(N)C(=O)O
What was measured:
[1] = biological target: human GLP-1 receptor (hGLP-1R) (human, UniProt P43220 24-463); test: cell-based or functional assay
[2] = biological target: human glucagon receptor (hGCGR) (human, UniProt P47871 26-477); test: cell-based or functional assay
Sequence of human glucagon receptor (hGCGR) (P47871 26-477): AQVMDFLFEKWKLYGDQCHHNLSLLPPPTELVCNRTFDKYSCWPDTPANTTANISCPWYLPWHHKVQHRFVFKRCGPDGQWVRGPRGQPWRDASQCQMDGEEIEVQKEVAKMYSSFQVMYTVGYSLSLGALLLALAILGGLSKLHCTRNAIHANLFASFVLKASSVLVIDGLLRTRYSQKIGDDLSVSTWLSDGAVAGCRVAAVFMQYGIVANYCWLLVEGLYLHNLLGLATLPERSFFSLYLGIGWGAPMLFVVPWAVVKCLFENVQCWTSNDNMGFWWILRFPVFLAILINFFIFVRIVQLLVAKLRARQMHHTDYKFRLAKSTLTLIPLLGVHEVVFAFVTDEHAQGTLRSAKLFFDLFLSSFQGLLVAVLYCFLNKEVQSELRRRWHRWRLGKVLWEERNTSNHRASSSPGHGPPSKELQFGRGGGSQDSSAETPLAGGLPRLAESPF

Binder	hGLP-1R EC50 (pM) [1] [pM]	hGluc-R EC50 (pM) [2] [pM]
H[Aib]HGS[αMeF]TSDVSK[αMeF]LDSK([AEEA-AEEA-γGlu-C18 diacid])AAQD[αMeF]VESIANT-NH2 (N-terminus assumed; SMILES CC[C@H](C)[C@H](NC(=O)[C@H](CO)NC(=O)[C@H](CCC(=O)O)NC(=O)[C@@H](NC(=O)[C@](C)(Cc1ccccc1)NC(=O)[C@H](CC(=O)O)NC(=O)[C@H](CCC(N)=O)NC(=O)[C@H](C)NC(=O)[C@H](C)NC(=O)[C@H](CCCCNC(=O)COCCOCCNC(=O)COCCOCCNC(=O)CC[C@H](NC(=O)CCCCCCCCCCCCCCCCC(=O)O)C(=O)O)NC(=O)[C@H](CO)NC(=O)[C@H](CC(=O)O)NC(=O)[C@H](CC(C)C)NC(=O)[C@](C)(Cc1ccccc1)NC(=O)[C@H](CCCCN)NC(=O)[C@H](CO)NC(=O)[C@@H](NC(=O)[C@H](CC(=O)O)NC(=O)[C@H](CO)NC(=O)[C@@H](NC(=O)[C@](C)(Cc1ccccc1)NC(=O)[C@H](CO)NC(=O)CNC(=O)[C@H](Cc1c[nH]cn1)NC(=O)C(C)(C)NC(=O)[C@@H](N)Cc1c[nH]cn1)[C@@H](C)O)C(C)C)C(C)C)C(=O)N[C@@H](C)C(=O)N[C@@H](CC(N)=O)C(=O)N[C@H](C(N)=O)[C@@H](C)O) [Peptide 23]	266	321
H[Aib]QGTFTSDVSK[αMeF]LDSK([AEEA-AEEA-γGlu-C18 diacid])RAQDFVQWLL[Aib]T-OH (N-terminus assumed; SMILES CC(C)C[C@H](NC(=O)[C@H](Cc1c[nH]c2ccccc12)NC(=O)[C@H](CCC(N)=O)NC(=O)[C@@H](NC(=O)[C@H](Cc1ccccc1)NC(=O)[C@H](CC(=O)O)NC(=O)[C@H](CCC(N)=O)NC(=O)[C@H](C)NC(=O)[C@H](CCCNC(=N)N)NC(=O)[C@H](CCCCNC(=O)COCCOCCNC(=O)COCCOCCNC(=O)CC[C@H](NC(=O)CCCCCCCCCCCCCCCCC(=O)O)C(=O)O)NC(=O)[C@H](CO)NC(=O)[C@H](CC(=O)O)NC(=O)[C@H](CC(C)C)NC(=O)[C@](C)(Cc1ccccc1)NC(=O)[C@H](CCCCN)NC(=O)[C@H](CO)NC(=O)[C@@H](NC(=O)[C@H](CC(=O)O)NC(=O)[C@H](CO)NC(=O)[C@@H](NC(=O)[C@H](Cc1ccccc1)NC(=O)[C@@H](NC(=O)CNC(=O)[C@H](CCC(N)=O)NC(=O)C(C)(C)NC(=O)[C@@H](N)Cc1c[nH]cn1)[C@@H](C)O)[C@@H](C)O)C(C)C)C(C)C)C(=O)N[C@@H](CC(C)C)C(=O)NC(C)(C)C(=O)N[C@H](C(=O)O)[C@@H](C)O) [Peptide 40]	29.9	123
H[Aib]QGTFTSDVSK[αMeF]LDSK([AEEA-AEEA-γGlu-C18 diacid])RA[Aib]DFVQWLL[Aib]T-OH (N-terminus assumed; SMILES CC(C)C[C@H](NC(=O)[C@H](Cc1c[nH]c2ccccc12)NC(=O)[C@H](CCC(N)=O)NC(=O)[C@@H](NC(=O)[C@H](Cc1ccccc1)NC(=O)[C@H](CC(=O)O)NC(=O)C(C)(C)NC(=O)[C@H](C)NC(=O)[C@H](CCCNC(=N)N)NC(=O)[C@H](CCCCNC(=O)COCCOCCNC(=O)COCCOCCNC(=O)CC[C@H](NC(=O)CCCCCCCCCCCCCCCCC(=O)O)C(=O)O)NC(=O)[C@H](CO)NC(=O)[C@H](CC(=O)O)NC(=O)[C@H](CC(C)C)NC(=O)[C@](C)(Cc1ccccc1)NC(=O)[C@H](CCCCN)NC(=O)[C@H](CO)NC(=O)[C@@H](NC(=O)[C@H](CC(=O)O)NC(=O)[C@H](CO)NC(=O)[C@@H](NC(=O)[C@H](Cc1ccccc1)NC(=O)[C@@H](NC(=O)CNC(=O)[C@H](CCC(N)=O)NC(=O)C(C)(C)NC(=O)[C@@H](N)Cc1c[nH]cn1)[C@@H](C)O)[C@@H](C)O)C(C)C)C(C)C)C(=O)N[C@@H](CC(C)C)C(=O)NC(C)(C)C(=O)N[C@H](C(=O)O)[C@@H](C)O) [Peptide 29]	107	629
H[Aib]HGS[αMeF]TSDVSK[αMeF]LDSK([AEEA-AEEA-γGlu-γGlu-C20 diacid])AAQD[αMeF]VQ[Aib]IANT-NH2 [Peptide 25]	726	1310
H[Aib]HGS[αMeF]TSDVSK[αMeF]LDSK([AEEA-AEEA-γGlu-C18 diacid])AAQD[αMeF]VQ[Aib]IANT-NH2 (N-terminus assumed; SMILES CC[C@H](C)[C@H](NC(=O)C(C)(C)NC(=O)[C@H](CCC(N)=O)NC(=O)[C@@H](NC(=O)[C@](C)(Cc1ccccc1)NC(=O)[C@H](CC(=O)O)NC(=O)[C@H](CCC(N)=O)NC(=O)[C@H](C)NC(=O)[C@H](C)NC(=O)[C@H](CCCCNC(=O)COCCOCCNC(=O)COCCOCCNC(=O)CC[C@H](NC(=O)CCCCCCCCCCCCCCCCC(=O)O)C(=O)O)NC(=O)[C@H](CO)NC(=O)[C@H](CC(=O)O)NC(=O)[C@H](CC(C)C)NC(=O)[C@](C)(Cc1ccccc1)NC(=O)[C@H](CCCCN)NC(=O)[C@H](CO)NC(=O)[C@@H](NC(=O)[C@H](CC(=O)O)NC(=O)[C@H](CO)NC(=O)[C@@H](NC(=O)[C@](C)(Cc1ccccc1)NC(=O)[C@H](CO)NC(=O)CNC(=O)[C@H](Cc1c[nH]cn1)NC(=O)C(C)(C)NC(=O)[C@@H](N)Cc1c[nH]cn1)[C@@H](C)O)C(C)C)C(C)C)C(=O)N[C@@H](C)C(=O)N[C@@H](CC(N)=O)C(=O)N[C@H](C(N)=O)[C@@H](C)O) [Peptide 24]	82.8	101
H[Aib]QGTFTSDYSK[αMeF]LDSK([AEEA-AEEA-γGlu-C18 diacid])RAQDFVQWLV[PEG4′]-NH2 [Peptide 41]	663	5740
H[Aib]QGTFTSDVSK[αMeF]LDSK([AEEA-AEEA-γGlu-C18 diacid])RAQDFVRWLLE[Aib]G-OH (N-terminus assumed; SMILES CC(C)C[C@H](NC(=O)[C@H](Cc1c[nH]c2ccccc12)NC(=O)[C@H](CCCNC(=N)N)NC(=O)[C@@H](NC(=O)[C@H](Cc1ccccc1)NC(=O)[C@H](CC(=O)O)NC(=O)[C@H](CCC(N)=O)NC(=O)[C@H](C)NC(=O)[C@H](CCCNC(=N)N)NC(=O)[C@H](CCCCNC(=O)COCCOCCNC(=O)COCCOCCNC(=O)CC[C@H](NC(=O)CCCCCCCCCCCCCCCCC(=O)O)C(=O)O)NC(=O)[C@H](CO)NC(=O)[C@H](CC(=O)O)NC(=O)[C@H](CC(C)C)NC(=O)[C@](C)(Cc1ccccc1)NC(=O)[C@H](CCCCN)NC(=O)[C@H](CO)NC(=O)[C@@H](NC(=O)[C@H](CC(=O)O)NC(=O)[C@H](CO)NC(=O)[C@@H](NC(=O)[C@H](Cc1ccccc1)NC(=O)[C@@H](NC(=O)CNC(=O)[C@H](CCC(N)=O)NC(=O)C(C)(C)NC(=O)[C@@H](N)Cc1c[nH]cn1)[C@@H](C)O)[C@@H](C)O)C(C)C)C(C)C)C(=O)N[C@@H](CC(C)C)C(=O)N[C@@H](CCC(=O)O)C(=O)NC(C)(C)C(=O)NCC(=O)O) [Peptide 31]	41.3	56.8

Reference: patent US20230357348A1 (AstraZeneca / MedImmune, published 2023)
